Assay [1] concerns the target T1, Claudin 18.2 (CLDN18.2), expressed on CHOS-CLDN 18.2 / HEK293-CLDN 18.2 / HCC827-CLDN 18.2 cells (human, UniProt P56856-2 1-261).
T1 construct: whole, on cells; The species is not repeated for the CHOS-CLDN 18.2 cells; also called claudin-18A2
Description: FACS, CHOS-CLDN18.2 cells, 0 µg/ml (background).
Description: (§1) The initial concentration of the antibody was 20 μg/ml, it was diluted at 1:4, and incubated at 4° C. for 60 min.

Assay [2] concerns the target T1, Claudin 18.2 (CLDN18.2), expressed on …. Description: FACS, CHOS-CLDN18.2 cells, 0.020 µg/ml. For orientation: In flow cytometry, cells or beads pass a laser one at a time.
Description: as §1
Assay [3] shares this target. Put plainly: FACS, CHOS-CLDN18.2 cells, 10 µg/ml.
Description: The initial concentration of the antibody was 20 μg/mkit was diluted at 1:4, and incubated at 4° C. for 60 min.
Assay [4] has the same target. Description: FACS, CHOS-CLDN18.2 cells, 1.250 µg/ml.
Description: as §1
Assay [5] has the same target. Put plainly: FACS, CHOS-CLDN18.2 cells.
Description: as §1
Assay [6] has the same target. Put plainly: FACS, CHOS-CLDN18.2 cells, 5 µg/ml.
Description: as §1
The target is the same in assay [7]. Put plainly: FACS, CHOS-CLDN18.2 cells, 5 µg/ml. The source holds these as a separate data set.
Description: as §1
Assay [8] shares this target. Description: FACS, CHOS-CLDN18.2 cells, 0.078 µg/ml.
Description: as §1
Assay [9] shares this target. Put plainly: FACS, CHOS-CLDN18.2 cells. The source holds these as a separate data set.
Description: as §1
The target is the same in assay [10]. Put plainly: FACS, CHOS-CLDN18.2 cells, 0.005 µg/ml.
Description: as §1
Assay [11] has the same target. Put plainly: FACS, CHOS-CLDN18.2 cells, 1.250 µg/ml. This is another data set of the same source.
Description: as §1
The target is the same in assay [12]. Description: FACS, CHOS-CLDN18.2 cells. This is another data set of the same source.
Description: as §1
Assay [13] shares this target. Description: FACS, CHOS-CLDN18.2 cells, 0.078 µg/ml. The source holds these as a separate data set.
Description: as §1
Assay [14] shares this target. Description: FACS, CHOS-CLDN18.2 cells, 1.250 µg/ml. This is another data set of the same source.
Description: as §1
The target is the same in assay [15]. Description: FACS, CHOS-CLDN18.2 cells, 20 µg/ml.
Description: as §1
For assay [16] the target is unchanged. Put plainly: FACS, CHOS-CLDN18.2 cells, 1.250 µg/ml. This is another data set of the same source.
Description: as §1
Assay [17] shares this target. Description: FACS, CHOS-CLDN18.2 cells. The source holds these as a separate data set.
Description: as §1
Assay [18] shares this target. Description: FACS, CHOS-CLDN18.2 cells. The source holds these as a separate data set.
Description: as §1

Like-named read-outs stand apart in the source and are kept apart here.

What is called EC50 is the concentration needed to bring the measured effect to its halfway point. Low readings indicate a more potent agent, high ones a less potent agent.

B1: QP024025 (antibody, human IgG1, V domains shown)
VH: QVQLQQPGAELVRPGASVKLSCKASGYTFTSYWINWVKQRPGQGLEWIGNIYPSDSYTNYNQKFKDKATLTVDKSSSTAYMQLSSPTSEDSAVYYCTRSWRGNSFDYWGQGTTLTVSS
VL: DIVMTQSPSSLTVTAGEKVTMSCKSSQSLLNSGNQKNYLTWYQQKPGQPPKLLIYWASTRESGVPDRFTGSGSGTDFTLTISSVQAEDLAVYYCQNDYSYPFTFGSGTKLEIK
notes: also called IMAB362; 175D10(IMAB362)
Take B1: the FACS reading in [1] turned out to be 732; in [2] it was 6950; in assay [4], 63700; in [6], 105000; in assay [7], 105000; in assay [8], 18200. In addition, the FACS reading was found to be 2830 in assay [10]; 63700 in assay [11]; 18200 in assay [13]; 63700 in assay [14]; 72300 in [15]; 63700 in [16]. The same molecule registered an MFI in assay [3] of 145000. Moreover, the EC50 in assay [5], in assay [9], in assay [12], in [17] and in [18] was 0.27 µg/mL in each case. For the same molecule, the max in assay [5], in assay [9], in assay [12], in assay [17] and in [18] was 88600 each time.
